According to patent US8598081B2, “Specific delivery of agrochemicals” (priority 2010, dated 2013):

T1: potato lectin (Solanum tuberosum, UniProt Q9S8M0)
T1 construct: purchased Sigma
T1 sequence (Q9S8M0 whole entry, looked up): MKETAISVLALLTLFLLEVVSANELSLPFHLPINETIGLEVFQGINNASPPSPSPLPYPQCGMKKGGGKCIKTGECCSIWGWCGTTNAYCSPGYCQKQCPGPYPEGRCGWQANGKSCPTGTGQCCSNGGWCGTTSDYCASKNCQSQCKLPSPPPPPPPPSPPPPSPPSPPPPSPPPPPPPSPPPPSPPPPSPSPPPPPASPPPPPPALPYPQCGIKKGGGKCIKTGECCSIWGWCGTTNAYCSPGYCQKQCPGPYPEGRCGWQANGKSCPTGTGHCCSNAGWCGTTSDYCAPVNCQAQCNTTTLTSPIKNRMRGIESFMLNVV


Columns and labels:
[1] = target: T1, potato lectin; assay: ELISA-like assay, microcapsules with monovalent or bivalent VHH, potato lectin; type: binding; set-up: Surface area of bound microcapsules: unit not given here
Excerpt: (§1) Bivalent VHH constructs were produced in bacteria by cloning two VHH sequences in tandem into the pASF22 vector, creating a fusion of two VHH with a 9 glycine-serine linker (GGGGSGGGS (SEQ ID NO:50)) in between the two VHH. pASF22 is an in-house produced pMES derivative. The tags that were used were C-terminal c-Myc (EQKLISEEDLN (SEQ ID NO:51)) and hexahistidine (HHHHHH (SEQ ID NO:52)). A triple alanine linker (AAA) was placed in between the C-terminal end of the VHH and the c-Myc tag and a glycine-alanine-alanine (GAA) linker was used in between the C-terminal end of the c-Myc tag and the hexahistidine tag. The complete sequence C-terminal of the bivalent VHH that was used: AAA-EQKLISEEDLN-GAA-HHHHHH (SEQ ID NO:53). Fresh overnight cultures were produced by starting from colony streaks and inoculation of 2×TY media supplemented with 2% glucose and 100 μg/ml ampicillin. The overnight cultures were used to inoculate fresh cultures 1:100 in 2×TY media with 0.1% glucose and 100 μg/ml ampicillin. After growing at 37° C. in a shaking incubator for 3 hours, IPTG was added to a 1 mM final concentration and recombinant bivalent VHH were produced during an additional incubation for 4 hours. Cells were spun down and resuspended in 1/50th of the original culture volume of PBS and incubated with head-over-head rotation at 4° C. for 30 minutes. Spheroplasts were spun down by centrifugation at 3,000 g and 4° C. for 20 minutes. Supernatants were transferred to fresh tubes and centrifuged again at 3,000 g and 4° C. for 20 minutes. The supernatant was collected and sodium chloride concentration was adjusted to 500 mM and imidazole concentration to 20 mM. Hexahistidine-tagged bivalent VHH were purified from the extracts using HisTrap FF Crude 5 ml IMAC columns (GE Lifesciences) and HiLoad 16/60 Superdex 75 prep grade gel filtration column (GE Lifesciences) on an AKTAxpress system (GE Lifesciences) following standard procedures.
(§2) Next, it was investigated if binding of microcapsules to surfaces could be improved by using targeting agents comprising multivalent VHH. A series of parallel couplings was performed with equal amounts of monovalent VHH, bivalent VHH, and unrelated VHH. Success of coupling of VHH and multivalent VHH were analyzed as described in Example 4. An ELISA-like assay was performed using high bind half area microplates (Greiner Bio-One) coated with 5 μg/well potato lectin. Control wells included blank wells or wells coated with unrelated antigens. Plates were washed three times with PBS with 0.05%-TWEEN®-20 and blocked with 5% skimmed milk in PBS for 1 to 2 hours. VHH-coupled Uvitex-containing microcapsules were diluted to appropriate densities in 1% skimmed milk in PBS with 0.05%-TWEEN®-20. Five-fold serial dilution series were prepared and allowed to bind to the surface to compare binding of microcapsules coupled with monovalent or bivalent VHH. Microcapsules were added to the antigen-coated or control wells and allowed to bind for 1 hour. Unbound microcapsules were removed by washing five times with PBS with 0.05%-TWEEN®-20. The bottoms of ELISA plate wells were analyzed for bound microcapsules on a macrozoom microscope system (Nikon). Microcapsules were counted using Volocity image analysis software (Perkin Elmer). A DAPI filter was used to visualize Uvitex microcapsules. […] The surface area of microcapsules with coupled bivalent VHH was 15-fold above the surface area of blank microcapsules applied at this microcapsule density while the surface area of microcapsules with monovalent VHH was only six-fold above the surface area of blank microcapsules applied at this microcapsule density. This difference could be explained by an increase in binding strength due to additional avidity of the bivalent VHH compared to monovalent VHH, it could also be that the use of bivalent VHH increases flexibility and spacer length of the coupled targeting agents on microcapsules, or a combination of both.

[2] = ELISA-like assay, microcapsules with monovalent or bivalent VHH, unrelated antigen; type: binding; set-up: unit not given beside the values; conditions: Uvitex microcapsules
Excerpt: as §1, §2

[3] = test system: gum arabic; assay: VHH binding to gum arabic in ELISA; set-up: species or system acacia tree
Method: Titration of VHH antibody fragments was performed on ELISA plates (Maxisorp, Nunc) coated with 100 μl per well 100 μg/ml gum arabic in 50 mM carbonate pH 9.6. Plates were coated at 4° C. overnight and coating was continued at room temperature for 1 hour on the next day. Plates were washed three times with PBS/0.05%-TWEEN®-20 and blocked with 5% skimmed milk in PBS for 1 hour. Four-fold serial dilutions of purified VHH antibody fragments were prepared in 1% MPBS/0.05%-TWEEN®-20 in polypropylene 96-well plates. Antibody concentrations ranged from 3 μg/ml to 12 ng/ml. Antibody dilutions were transferred to the gum arabic-coated plates and VHH antibody fragments were allowed to bind for 1 hour at room temperature. Bound VHH were detected with sequential incubations with monoclonal mouse anti-histidine antibodies (Abd Serotec) and rabbit anti-mouse IgG whole molecule antibodies conjugated with alkaline phosphatase (RaM/AP) (Sigma) in 1% MPBS/0.05%-TWEEN®-20. Unbound antibodies were removed by washing three times with PBS/0.05%-TWEEN®-20 after each antibody incubation. The plates were washed an additional two times with PBS and 100 μl pNPP disodium hexahydrate substrate (Sigma) was added to each well. The absorbance at 405 nm was measured and plotted as function of antibody concentration (see Table 1).

[4] = target: T1, potato lectin; assay: VHH binding to potato lectin in ELISA; conditions: Table 2; Blank (no antigen coating); VHH 3 μg/ml
Method: ELISA plates (Maxisorp, Nunc) coated with 100 μl per well 100 μg/ml potato lectin (Sigma) in PBS were coated at 4° C. overnight and coating was continued at room temperature for 1 hour on the next day. Plates were washed three times with PBS/0.05%-TWEEN®-20 and blocked with 5% skimmed milk in PBS for 1 hour. VHH (3 μg/ml) were transferred to the potato lectin-coated plates and VHH antibody fragments were allowed to bind for 1 hour at room temperature. Bound VHH were detected with sequential incubations with monoclonal mouse anti-histidine antibodies (Abd Serotec) and rabbit anti-mouse IgG whole molecule antibodies conjugated with alkaline phosphatase (RaM/AP) (Sigma) in 1% MPBS/0.05%-TWEEN®-20. Unbound antibodies were removed by washing three times with PBS/0.05%-TWEEN®-20 after each antibody incubation. The plates were washed an additional two times with PBS and 100 μl pNPP disodium hexahydrate substrate (Sigma) was added to each well and the absorbance at 405 nm was measured (see Table 2).

[5] = Table 2, gum arabic coating, VHH 3 μg/ml
[6] = [VHH] 3 μg/ml (200 nM), gum arabic − (well without gum arabic)

| Molecule | absorbance at 405 nm [3, 5] | absorbance at 405 nm [3, 6] | absorbance at 405 nm [4] | further results |
| --- | --- | --- | --- | --- |
| Bivalent VHH 3E6: Uvitex-containing microcapsules coupled with bivalent VHH, a fusion of two VHH with a 9 glycine-serine linker (conjugate) QVQLQESGGGLVQPGGTLSLSCAASGFNVRWYGMGWFRQAPGKEREGVACISALQETTAYADSVKGRFTLSRDNPKNTLSLQMNNLQPEDTGVYYCATTDCDDSSRMTYTSYLGQGTQVTVSSGGGGSGGGSQVQLQESGGGLVQPGGTLSLSCAASGFNVRWYGMGWFRQAPGKEREGVACISALQETTAYADSVKGRFTLSRDNPKNTLSLQMNNLQPEDTGVYYCATTDCDDSSRMTYTSYLGQGTQVTVSSAAAEQKLISEEDLNGAAHHHHHH | – | – | – | more microcapsules retained in the well compared to microcapsules with monovalent VHH ([1]; application of 25-fold less microcapsules, potato lectin): 160%; more microcapsules retained in the well compared to microcapsules with monovalent VHH ([1]; highest density of microcapsules applied (fully cover the bottom of the well), potato lectin): 17%; Surface area of bound microcapsules ([1]; no coating (first series, with potato lectin rows), surface coverage 100%, Uvitex microcapsules): 66.176; binding to antigen-coated surface when coupled to a microcapsule ([1]; potato lectin 5 μg/well, Uvitex microcapsules): capable of binding specifically; Surface area of bound microcapsules ([1]; potato lectin, surface coverage 4%, Uvitex microcapsules): 155.759; Surface area of bound microcapsules ([1]; potato lectin, surface coverage 20%, Uvitex microcapsules): 511.303; Surface area of bound microcapsules ([1]; potato lectin, surface coverage 100%, Uvitex microcapsules): 490.546; Surface area of bound microcapsules ([2]; no coating (second series, with unrelated antigen rows), surface coverage 100%): 55.841; Surface area of bound microcapsules ([2]; unrelated antigen, surface coverage 20%): 22.114; Surface area of bound microcapsules ([2]; unrelated antigen, surface coverage 100%): 45.677 |
| VHH 5C4: VHH sequence; SEQ ID NO:18 by order of the list (protein, listed as Lama glama, 5C4) VHH: QVQLQESGGGLVQPGGSLRLSCAASGFSLRYFGIGWFRQVAGKEREPVSCSNVRDGNTYYADSVKGRFTISRDNVRNTLYLQMNSLKPEDTAVYSCATTDCEATTWGTYRGYFGQGTQVTVSS | 0.873 | 0.082 | 0.071 | – |
| VHH 5G5: VHH sequence; SEQ ID NO:24 by order of the list (protein, listed as Lama glama, 5G5) VHH: QVQLQESGGGLVQPGGSLRLSCAASGFSLRYFGIGWFRQAAGKEREGISCSNVRDGNTYYADSVKGRFTISRDNVRNMLYLQMNNLKPDDTAVYSCATTDCEATTWGTYRGYFGQGTQVTVSS | 0.751 | 0.077 | 0.073 | – |
| VHH5E5: VHH sequence; SEQ ID NO:21 by order of the list (protein, listed as Lama glama, 5E5) VHH: QVQLQESGGGLVQPGGSLTLSCTASGFAMRRFGIGWFRQVVGKEREGVSCSNVHDGSTYYANYVKGRFTIVRDDTKNMLYLHMNSLRAEDTGVYSCATTDCEATAWGTYRGYFGQGTQVTVSS | – | 0.073 | – | – |
| VHH 7D2: VHH sequence; SEQ ID NO:28 by order of the list (protein, listed as Lama glama, 7D2) VHH: QVQLQESGGGLVQPGRSLKVACAAAGFSLRYYGIGWFRQAPGKEREAVSCTSANDGSTYYRDSVRGRFTISRDDGKNTVYLQMNRLKPEDTAVYYCATTDCDATSWGTWINYYGQGTQVTVSS | 0.274 | 0.074 | 0.072 | – |
| VHH7C2: VHH sequence; SEQ ID NO:27 by order of the list (protein, listed as Lama glama, 7C2) VHH: QVQLQESGGGLVQPGGSLRLSCAAFGFALANYGIGWFRQAPGKDRERVSCDSVDDGSTHYSNSVQGRFTIIRDNAKNTVFLQMNSLKAEDTAVYYCATTDCDATTWGTWINYRGQGTQVTVSS | – | 0.077 | – | – |
| VHH5F5: VHH sequence; SEQ ID NO:22 by order of the list (protein, listed as Lama glama, 5F5) VHH: QVQLQESGGGLVQPGGSLRLSCAASGFPLGLYGIGWFRQAPGKEREAVSCDSVDDGSTNYLDSVKGRFTISRDNAKNMVYLQMNSLKPEDTAVYYCATTDCDAKAWGTWTNYRGQGTQVTVSS | – | 0.090 | – | – |
| VHH7A2: VHH sequence; SEQ ID NO:26 by order of the list (protein, listed as Lama glama, 7A2) VHH: QVQLQESGGGSVHPGGSLTLSCLASGFSLSNYGMGWFRQAPGKEREAVSCTSVPNGHIYYAESVKGRFTIVRDNAGNSVYLQMNSLKPEDAANYFCATTDCEAAHWGTWVNYYGQGTQVTVSS | – | 0.075 | – | – |
